# Values quoted from earlier work, collected in publication PMC7915401.
# Like-named read-outs stand apart in the source and are kept apart here.
# Assays:
# [1] = molecular target: CD200R1 (Homo sapiens) (UniProt Q8TD46)
# [2] = molecular target: CD200R1 (Homo sapiens) (UniProt Q8TD46); remark: listed apart in the source
# Sequence of UniProt Q8TD46 (Q8TD46 25-265): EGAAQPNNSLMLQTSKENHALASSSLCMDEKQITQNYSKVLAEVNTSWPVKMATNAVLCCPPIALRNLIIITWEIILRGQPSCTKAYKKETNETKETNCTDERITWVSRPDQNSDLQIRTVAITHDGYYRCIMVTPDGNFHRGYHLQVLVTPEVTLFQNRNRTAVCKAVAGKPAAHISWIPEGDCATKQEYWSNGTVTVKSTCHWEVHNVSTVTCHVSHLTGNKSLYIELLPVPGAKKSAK
Substance,Kd [1] [nM],Kd [2] [nM]
CD200 (from UniProt P41217),500,–
K14 (vOX2) (from UniProt P0C788),–,500
